Assay results published in the nanobody polyreactivity screen of Harvey et al. (2022).

Assay: yeast display, Sf9 membrane polyspecificity reagent, FACS + sequencing; frameworks hold sequencing errors
In short: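 Genes from sorted yeast were amplified by colony PCR, read by MiSeq 2 × 250 sequencing and filtered on CDR length. These cells carried a synthetic nanobody library in Saccharomyces cerevisiae BJ5465 and were sorted by FACS into low and high (top ~1%) gates on anti-HA and streptavidin fluorescence. Polyreactivity is labelled according to the gate of origin.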

Sequence	polyreactivity (PSR sort gate)
QVQLVESGGGLVQAGGRLRLSCAASGRIFNKYVMGWYRQAPGKERELVAAISGRGGSTYYADSVKGRFTISRDYEKNTVYLQMNSLKPEDSAVYYCAAEYQGRRMYYWGQGTQVTVSS	high polyreactivity
QVQLVESGGGLVQAGGRLRLSCAASGRIFPKNTMGWNRPAPGKERELVAAINWNGGRTYYADSVKGRYTISRDNAKTTVYLQMNSLKPEDTAVYYCAKDGYWVFDYWGQGTQVTVSS	low polyreactivity
QVQLVESGGGLVQAGGRLRLSCAASGRIFTYNAMGWYRQAPGKEREFVAAISSGGSTTYADSVKGRFTISRDNAKNTVYLQMNSLKPEDTAVYYCAAGGCRFAIIEYEYWGQGTQVTVSS	low polyreactivity
QVQLVESGGGLVQAGGRLRLSCAASGRIFVYYAMGWYRQAPGKERELVAAINAGGSTNYADSVKGRFTISRDNAKNTVYLQMNSLKPEDTAVYYCATDRYWWSGFDYWGQGTQVTVSS	high polyreactivity
QVQLVESGGGLVQAGGRLRLSCAASGRIFYHNAMGWYRQAPGKERELVAAITWSGVSTYYADSVKGRFTISRDNAKNTVYLQMNSLKPEDTAVYYCAKRGRWDWDFNYWGQGTQVTVSS	high polyreactivity
QVQLVESGGGLVQAGGRLRLSCAASGRTFANYAMGWYRQAPGKERELVAAITGSGSTNYADSVKGRFTISRDNAKNTVYLQMNSLKPEDTAVYYCAAAYKPYRCLYYPNSIDFGYWGQGTQVTVSS	high polyreactivity
QVQLVESGGGLVQAGGRLRLSCAASGRTFATNAMGWYRQAPGKERELVADISGGGSTYYADSVKGRFTISRDNAKNTVYLQMNSLKPEDTAVYYCAARDYHWFQWYDYWGQGTQVTVSS	low polyreactivity
QVQLVESGGGLVQAGGRLRLSCAASGRTFFQYAMGWYRQAPGKERELVAAIRCSDSTYYADSVKGRFTISRDNAKNTVYLQMNSLKPEDTAVYYCAVRAYREFLPIVYKWWWERDHWGQGTQVTVSS	low polyreactivity
QVQLVESGGGLVQAGGRLRLSCAASGRTFGSYAMGWYRQAPGKERELVAAISWSDGSTYYADSVKGRFTISRDNAKNTVYLQMNSLKPEDTAVYYCHWAKWYRYGGYRSRFDYWGQGTQVTVSS	low polyreactivity
QVQLVESGGGLVQAGGRLRLSCAASGRTFGTYAKGWSRQATGKERELVAAIRSNAGSTYYADSVKGRFTISRDNAKITVYLQMNSLKPEDTAVYYCAKSYRSSRRYNYWGQGTQVNVSS	high polyreactivity
QVQLVESGGGLVQAGGRLRLSCAASGRTFGYYTMGWYRQAPGKERELVATIRWSGGSTYADSVKGRFTISRDNANNTVYLQMNSLKPEDTAVYYCARRLFSWGAPFGYWGQGTQVTVSS	high polyreactivity
QVQLVESGGGLVQAGGRLRLSCAASGRTFRRYTMGWYRQAPGKERELVAAISRNGGSTYYADSVKGRFTISRDNAKNTVYLQMNSLKPEDTAVYYCAALRYAYIADYDYWGQGTQVTVSS	high polyreactivity
QVQLVESGGGLVQAGGRLRLSCAASGRTFTYNAMGWYRQAPGKERELFAAISNTGSTYYADSLKGRFTISRDNAKNTVYLQMNSLKPEDTAVYYCAADRAEFRQDDDPGESNYWGQGTQVTVSS	low polyreactivity
QVQLVESGGGLVQAGGRLRLSCAASGRTFYYNAMGWYRQAPGKERELVAAISSSGGRTYYADSVKGRFTISRDNAKNTVYLQMNSLKPEDTAVYYCAALTNARGFDYWGQGTQVTVSS	high polyreactivity
QVQLVESGGGLVQAGGRLRLSCAASGSIFFDYAMGWYRQAPGKERELVAAINSGGTTNYADSVKGRFTISRDNAKNTVYLQMKQPETGRYRGLLLQRLPGYIRWYRWYDYWGQGTQVTVSS	low polyreactivity
QVQLVESGGGLVQAGGRLRLSCAASGSIFFGNVIGWYRQAPGKEREWVAAINTDGRTYYADSVKGRFTISRDNAKNTVYLQMNSLKPEDTAVYYCAKAVWWSLPAQKSYLYYYWGQGTQVTVSS	high polyreactivity
QVQLVESGGGLVQAGGRLRLSCAASGSIFGGNDMGWYRQPPGKERELVAAITSSGGSTYYADSVKGRFTISRDNAKNTVYLQMYSLKPEDTAVYYCNADYYGPYRDYGYWGQGTQVTVSS	low polyreactivity
QVQLVESGGGLVQAGGRLRLSCAASGSIFINNTMGWYRQAPGKERELVAAISITGGSTYYADSVKGRFTISRDNAKNTVYLQMNSLKPEDTAVYYCAADPLQLYDYNYWGQCTQVTVSS	low polyreactivity
QVQLVESGGGLVQAGGRLRLSCAASGSIFNSYDMGWYRQAPGKERELVAAINSGGSTYYADSVKGRFTISRDNAKNTDYFQMNSLKPEDTAVYYCAARVVIRYPYTKGYYYWGQGTQVTVSS	high polyreactivity
QVQLVESGGGLVQAGGRLRLSCAASGSIFRVYAMGWYRQAPGKERELVARISRGGRTNYADSVKGRFTISRDNAKNTVYLQMNSLKPEDTAVYYCAADVVSLESYSYQSLGYDYWGQGTQVTVSS	high polyreactivity
QVQLVESGGGLVQAGGRLRLSCAASGSIFSSYAMGWYRQAPGKERELVAAITNSGVSTYYADSVKGRFTISRDNAKYTVYLQMNSLKPEVTASITALKTVVRLPTVYTPLLNWYYYWGQGTQVTVSS	low polyreactivity

Sequence	polyreactivity (PSR sort gate)
QVQLVESGGGLVQAGGRLRLSCAASGSILVFYARGWYRQAPGKERELVAAITSGASTNYADSVKGRFTISRDNAKNTVYLQMNSLKPEDTAVYYCAAGFQTRTPLNEFDYWGQGTQVTVSS	low polyreactivity
QVQLVESGGGLVQAGGRLRLSCAASGSISQTNAMGWYRKAPGKERELVAAISGSGGSTYADSVKGRFTISRDNAKNTVYLQMNSLKPEDTAVYYCARDRYYTREWYWYRHDHWGQGTQVTVSS	low polyreactivity
QVQLVESGGGLVQAGGRLRLSCAASGSNFTYYAMGWYRKAPGKEREFVAAISRRGGSTYYADSVKGRFTISRDNAKNTVYLQMNSLKPEDTAVYECNARYTGSSLYYWGQGTQLTVSS	high polyreactivity
QVQLVESGGGLVQAGGRLRLSCAASGSNFYENAMVWYRQAPGKERELVADITNSGGSTYYADSVKGRFTISRDNAKNTVYLQMNSLIPEDTAVFYFATDVGYFYTVVGGYDYWGQGTQVTVSS	low polyreactivity
QVQLVESGGGLVQAGGRLRLSCAASGSTFGDYAMGWYRQAPGKEREFVAAITWSGGSTNYADSVKGRFTISRDYAKNTVYLPMNSLKPEDTAVYYCAKPWYSSGFEYWGQGTQLTVSS	high polyreactivity
QVQLVESGGGLVQAGGRLRLSCAASGSTFGTNDMGWYRQAPGKEREFVASIDWSGDSTNYADSVKGRFTISRDNAKNTVYLQMNSLKPEDTADYYCAARVFPQIYYTSYDYWGQGTQVTVSS	high polyreactivity
QVQLVESGGGLVQAGGRLRLSCAASGSTFIGNAMGWYRQAPGKERELVAAISRTGGSTYADSVKGRFTISRDNAKNTVYLQMNSLKPEDTAVYYCAAKYYYLYYYWGQGTQVTVSS	high polyreactivity
QVQLVESGGGLVQAGGRLRLSCAASGSTFILNAMGWYRQAPGKERELVAAISRSGGNTYYADSVKRRFTISRDNAKNTVYLQMNSLKPADTAVYYCAATRRSHYYYWGQGTQVTVSS	high polyreactivity
QVQLVESGGGLVQAGGRLRLSCAASGSTFLNYAMGWYRQAPGKQRELVSSIDSSDGRTYYADSVKGRFTISRDNAKNTVYLQMNSLKPEDTEVYYCAKDSYAVELRPYSKLSSRADGYWGQGTQVTVSS	low polyreactivity
QVQLVESGGGLVQAGGRLRLSCAASGSTFPYYAMGWYRQAPGKERELVAVITRGGSTYYADSVKGRFTISRDNAQNTVYLQMNSLKPEDTAVYYCAARYTPGFCYWGQGTQVTVSS	high polyreactivity
QVQLVESGGGLVQAGGRLRLSCAASGSTFSWYVMGWYRQAPGKERELVAAITRGGGSTYYADSVKGRFTISRDNAKNTVYLQMNSLKPEDTAVYYCNADSNIPDYDYWGQGTQVTVSS	low polyreactivity
QVQLVESGGGLVQAGGRLRLSCAASGSTFSYYAMGWYRQAPGKERELVAAISSRGSSTYYADSVKGRFTISRDNAKNTVYLQMNSLKPQATAVYYCAAVRYSPTKFNYWGQGTQVTVSS	high polyreactivity
QVQLVESGGGLVQAGGRLRLSCAASGSTFVTNYMGRYRQAPGKERELVAAISSGTSTNYADSVKGRFTISRDNAKNTVYLQMNSLTREDTPVYYCAADSLKRYDYWGQGTQVTVSS	low polyreactivity
QVQLVESGGGLVQAGGRLRLSCAASGSTLDPYAMGLYRQAPGKERELVAAITISGGTTYNADSVKGRFTISRDNAKNTVYLQMNSMKPEDTAVYYCAAEGTYVTLGYYNLDVRYDYWGQGTQVTVSS	low polyreactivity
QVQLVESGGGLVQAGGRLRLSCAASGYTFPLYARGWYRQAPGKERELVADINIGGASSYYADSVKGRVTISRDNAKKTVYLQMNSLKPEDTAVYYCAKEYYDGYFPTFDYDYWGQGTQVTVSS	low polyreactivity
QVQLVESGGGLVQAGGRLRLSCAATGRTFRTYVMGWYRQGPGKEREMFAAITWSAGRTYYADSVKGRFTISRDNAQNTVYLQMNSLKPEDTAVYYCATLPTYYLRSYGLDYWGQGTQVTVSS	high polyreactivity
QVQLVESGGGLVQAGGRLRLSCAATGRTFWENAMGWYRQAPGKERELVAAISGDSGSTYYADSVKGRFTISRDNAKNTVYLQMNSLKPEDTAVYYCAADSDRDDSYPYYYWGQGTQVTVSS	low polyreactivity
QVQLVESGGGLVQAGGRLRLSFAASGFTFRYYAMGWYRQAPGKEREFVAAIRSSGTTTSYADSVKGRFTISRDNAKNTVYLHMKSLKPEDTAVYYCAKVSSSSYVEHRYGYWGQGTQVTVSS	high polyreactivity
QVQLVESGGGLVQAGGRLRLSWAASGSTFFGNAMGWYRQAPGKERELVAVITKGGGSTYYADSVKGRFTISRDNAKNTVYLQMNSLKPEDTAVYYCAKTYTSGYHRRYDYWGQGTQVTVSS	low polyreactivity
QVQLVESGGGLVQAGGRLRLTCAASGRIFYRYAMGWYRQAPGKERELVASITRSGITHYADSVKGRFTISRDNAKNTVYLQMNSLKPEDTAVYYCNARRGSPAPYDYWGKGTQVTVSS	high polyreactivity
